# According to patent US20260085129A1 (ECO ANIMAL HEALTH, published 2026):
# T1: pCD163-SRCR-FL-PST2-His (porcine, UniProt Q2VL90 51-1044)
# T1 construct: also called pCD163-1-PST2-His; pCD163-SRCR1-PST2; not shown: His tag
# T1 sequence: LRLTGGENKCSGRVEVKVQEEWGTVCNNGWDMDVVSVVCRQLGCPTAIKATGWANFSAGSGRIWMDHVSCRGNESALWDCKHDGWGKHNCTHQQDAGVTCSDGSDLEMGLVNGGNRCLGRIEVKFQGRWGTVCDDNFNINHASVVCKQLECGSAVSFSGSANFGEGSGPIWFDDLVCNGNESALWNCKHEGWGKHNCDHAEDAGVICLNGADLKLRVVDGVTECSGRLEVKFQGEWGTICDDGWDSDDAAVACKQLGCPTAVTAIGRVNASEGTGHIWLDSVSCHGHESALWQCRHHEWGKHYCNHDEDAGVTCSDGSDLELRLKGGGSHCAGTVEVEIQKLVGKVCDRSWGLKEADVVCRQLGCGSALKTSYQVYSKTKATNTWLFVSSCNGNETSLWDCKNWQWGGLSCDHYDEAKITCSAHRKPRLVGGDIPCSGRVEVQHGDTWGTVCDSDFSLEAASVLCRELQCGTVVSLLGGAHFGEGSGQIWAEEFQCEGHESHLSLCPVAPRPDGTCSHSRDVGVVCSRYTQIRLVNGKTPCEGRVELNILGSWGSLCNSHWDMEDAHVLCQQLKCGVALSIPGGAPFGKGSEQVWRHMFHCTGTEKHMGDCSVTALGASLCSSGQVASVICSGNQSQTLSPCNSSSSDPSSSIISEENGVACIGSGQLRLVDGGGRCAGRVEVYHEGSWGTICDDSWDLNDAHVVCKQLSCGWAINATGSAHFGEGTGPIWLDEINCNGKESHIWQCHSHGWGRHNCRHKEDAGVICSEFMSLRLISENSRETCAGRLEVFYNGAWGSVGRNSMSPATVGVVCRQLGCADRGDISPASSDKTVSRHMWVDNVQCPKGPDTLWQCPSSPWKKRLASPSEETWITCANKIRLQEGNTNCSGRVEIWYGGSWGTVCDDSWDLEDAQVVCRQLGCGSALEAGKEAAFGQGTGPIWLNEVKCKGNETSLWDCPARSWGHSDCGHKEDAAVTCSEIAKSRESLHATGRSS
# T2: pCD163-SRCR1-9-huFc (porcine, UniProt Q2VL90 51-1028)
# T2 construct: Limits 51-1028 are those the description gives for CD163-SRCR1-9; also called porcine CD163 SRCR1 to SRCR9 (no PST2) with human Fc; soluble CD163; not shown: human Fc (huFc)
# T2 sequence: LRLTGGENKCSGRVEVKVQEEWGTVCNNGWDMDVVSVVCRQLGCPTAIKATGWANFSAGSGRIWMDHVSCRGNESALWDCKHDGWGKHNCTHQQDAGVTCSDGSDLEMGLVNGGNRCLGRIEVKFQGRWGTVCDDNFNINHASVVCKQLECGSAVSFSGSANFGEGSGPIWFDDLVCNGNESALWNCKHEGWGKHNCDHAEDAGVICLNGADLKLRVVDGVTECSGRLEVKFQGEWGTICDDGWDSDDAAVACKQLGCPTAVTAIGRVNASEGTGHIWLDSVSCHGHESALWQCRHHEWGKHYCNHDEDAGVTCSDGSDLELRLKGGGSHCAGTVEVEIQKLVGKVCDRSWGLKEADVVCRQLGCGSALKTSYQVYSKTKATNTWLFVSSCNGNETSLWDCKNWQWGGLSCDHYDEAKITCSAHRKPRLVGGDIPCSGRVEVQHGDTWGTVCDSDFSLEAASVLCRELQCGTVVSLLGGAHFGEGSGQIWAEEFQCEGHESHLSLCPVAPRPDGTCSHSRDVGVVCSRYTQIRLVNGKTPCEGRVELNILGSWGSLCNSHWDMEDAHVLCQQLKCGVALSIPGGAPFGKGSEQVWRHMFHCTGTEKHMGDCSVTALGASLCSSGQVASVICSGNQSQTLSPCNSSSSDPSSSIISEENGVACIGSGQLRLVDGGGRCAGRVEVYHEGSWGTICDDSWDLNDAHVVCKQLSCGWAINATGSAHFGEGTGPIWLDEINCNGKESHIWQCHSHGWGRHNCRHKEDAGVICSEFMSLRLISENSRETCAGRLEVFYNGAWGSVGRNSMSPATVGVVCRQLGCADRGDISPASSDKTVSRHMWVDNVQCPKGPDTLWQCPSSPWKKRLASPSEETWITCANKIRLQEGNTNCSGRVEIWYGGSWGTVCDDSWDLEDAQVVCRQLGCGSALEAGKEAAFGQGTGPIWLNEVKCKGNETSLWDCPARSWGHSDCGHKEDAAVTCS
# B1: Clone 39-H17B11 VHH antibody (VHH)
# VHH: QVQLVESGGGLVQAGGSLRLSCAASGRTFSSYAMGWFRQTPGKDREFVARIGWTGGTTIYADSVKGRFTISRDNAKNTVYLQMNSLKPEDTAVYYCAADQAGWRTAGVRNTYEYDYWGQGTQVTVSS
# notes: Llama single domain antibody; also called clone 17B11; not shown: tags: c-myc tag on the soluble VHH in periplasmic extracts; FLAG and His tags on the purified VHH
# Columns and labels:
# huCD6-pPST2-His = molecular target: T3, huCD6-pPST2-His (human, UniProt P30203 18-402); assay: P.E. binding ELISA, antigen coated at 1 ug/ml, anti-c-Myc detection
# T3 construct: composition read from the name; not shown: His tag
# Protocol: (§1) For P.E. binding ELISA, MaxiSorp™ high protein-binding capacity 96 well ELISA plates, were coated with 1 μg/ml of pCD163-SRCR-FL-PST2-His or huCD6-pPST2-His, or pCD163-SRCR1-9-huFc protein, diluted in PBS, overnight at 4° C. The next day, plates were washed 3× with PBS Tween 0.05% (pH 7.4) and blocked for 1 hour at room temperature with 250 μl/well of 4% Marvel/PBS. After blocking, plates were washed 3× with PBS Tween 0.05% (pH7.4) and incubated per well with 20 μl of P.E+80 μl in 1% Marvel/PBS (pH7.4), for 1 hour at room temperature (RT) with shaking. Plates were washed 3× with PBS Tween 0.05% (pH7.4) and incubated with 100 μl of anti-c-Myc antibody (Roche; Cat. nr. 11667203001) followed by secondary antibody DAM-HRP (JIR; Cat. nr. 715-035-150) in 1% Marvel/PBS (pH7.4), for 1 hour at RT with shaking. Plates were washed 3× with PBS Tween 0.05% (pH7.4) and the substrate solution (TMB solution) was added to the plates. Reaction was stopped with H2SO4 and plates read in the plate reader at 450 nm.
# pCD163-SRCR-FL-PST2-His = molecular target: T1, pCD163-SRCR-FL-PST2-His; assay: as above
# Protocol: as §1
# pCD163-SRCR1-9-huFc [1] = molecular target: T2, pCD163-SRCR1-9-huFc; assay: as above
# Protocol: as §1
# pCD163-SRCR1-9-huFc [2] = molecular target: T2, pCD163-SRCR1-9-huFc; assay: Biacore 3000 SPR, antigen amine-coupled on CM5 chip, pH 7.4
# T3 sequence (P30203 whole entry): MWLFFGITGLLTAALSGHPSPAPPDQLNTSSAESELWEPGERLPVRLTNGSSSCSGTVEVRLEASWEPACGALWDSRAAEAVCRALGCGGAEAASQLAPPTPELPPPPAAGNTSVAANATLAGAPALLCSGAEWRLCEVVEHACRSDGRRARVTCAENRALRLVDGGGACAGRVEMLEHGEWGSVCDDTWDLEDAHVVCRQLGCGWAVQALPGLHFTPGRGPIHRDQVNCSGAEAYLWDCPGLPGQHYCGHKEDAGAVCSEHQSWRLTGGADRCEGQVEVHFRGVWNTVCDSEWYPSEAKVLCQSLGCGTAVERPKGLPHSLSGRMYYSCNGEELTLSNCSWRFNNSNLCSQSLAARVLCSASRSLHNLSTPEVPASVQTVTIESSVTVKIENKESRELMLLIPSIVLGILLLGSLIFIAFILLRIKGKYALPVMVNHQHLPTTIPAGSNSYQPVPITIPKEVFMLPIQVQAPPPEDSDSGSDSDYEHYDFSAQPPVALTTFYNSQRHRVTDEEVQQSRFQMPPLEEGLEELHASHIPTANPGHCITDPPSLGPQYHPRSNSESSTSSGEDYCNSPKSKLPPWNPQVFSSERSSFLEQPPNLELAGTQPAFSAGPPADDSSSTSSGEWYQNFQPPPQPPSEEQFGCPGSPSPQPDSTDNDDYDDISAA
binder,measurement,setting,value
B1,O.D. 450 nm,huCD6-pPST2-His,0.052 O.D. 450 nm
same,O.D. 450 nm,pCD163-SRCR-FL-PST2-His,0.066 O.D. 450 nm
same,O.D. 450 nm,pCD163-SRCR1-9-huFc [1],0.091 O.D. 450 nm
same,binding result,pCD163-SRCR1-9-huFc [2],no binding (tested: 200 nM (highest VHH concentration))
